The chains are these.
B1: Apoptosis-associated speck-like protein containing a CARD, residues 114 to 194; numbered along this chain, Q9ULZ3 (parent)
chain: FIDQHRAALIARVTNVEWLLDALYGKVLTDEQYQAVRAEPTNPSKMRKLFSFTPAWNWTCKDLLLQALRESQSYLVEDLER
B2: POU domain, class 4, transcription factor 3, residues 185 to 256; numbered along this chain, Q15319 (parent)
chain: RELEAFAERFKQRRIKLGVTQADVGAALANLKIPGVGSLSQSTICRFESLTLSHNNMIALKPVLQAWLEEAE

± gives the uncertainty stated by the source.

The first series covers variants of B1. Nature of the series: abundance fitness (aPCA) (normalised: wild type 0, dead -1); higher = more abundant; growth selection in yeast, the domain comes from the species named. Particulars: Homo sapiens.
On to F1M, for which the abundance fitness was -0.661 ± 0.27.

With F1D, the abundance fitness was -0.685 ± 0.28. Take F1R: the abundance fitness was -0.498 ± 0.26.

As to F1Y, the abundance fitness was -1 ± 0.43. In the case of F1C, the abundance fitness is -1.04 ± 0.38. The same measure, in the same setting: to F1G belongs -0.968 ± 0.25.

In the case of F1L, the abundance fitness is -0.809 ± 0.2. Take F1H: the abundance fitness was -0.375 ± 0.41. On to F1S, for which the abundance fitness was -0.385 ± 0.21. With F1V, the abundance fitness was -0.908 ± 0.15.

In the case of F1E, the abundance fitness is -0.745 ± 0.27. Same read-out and setting: for I2W the value was -0.619 ± 0.43. On the same count and under the same terms, to D3Q belongs -0.929 ± 0.19; to D3I, -0.796 ± 0.27. Regarding D3N, the abundance fitness is -0.599 ± 0.12. Regarding D3P, the abundance fitness was -0.951 ± 0.21.

Turning to D3L, the abundance fitness is -0.881 ± 0.14. Same read-out and setting: for D3S the value was -0.592 ± 0.11. Regarding D3C, the abundance fitness was -0.822 ± 0.23. With D3K, the abundance fitness was -0.825 ± 0.44. Turning to D3W, the abundance fitness is -0.582 ± 0.13. Consider D3G, for which the abundance fitness was -0.805 ± 0.088.

For the variant D3E, the abundance fitness is -0.387 ± 0.097. Same read-out and setting: for D3A the value was -0.777 ± 0.12; for D3R, -0.544 ± 0.095; for D3H, -0.616 ± 0.16. In the case of D3T, the abundance fitness was -0.907 ± 0.25. Take D3F: the abundance fitness is -0.749 ± 0.38.

Variants of B2 are the subject of a further series. Described as above. As to conditions: Homo sapiens.
For the variant S42F, the abundance fitness was -0.225 ± 0.069. S42P: the abundance fitness was -0.428 ± 0.07. Consider S42N, for which the abundance fitness is 0.06 ± 0.4. Still for that read-out and setting: to A5C belongs -0.552 ± 0.3; to A5V, -0.051 ± 0.096. A5S: the abundance fitness is -0.002 ± 0.19. For F10L, the abundance fitness is -0.697 ± 0.27.

Consider R1T, for which the abundance fitness was -0.133 ± 0.13. R1C: the abundance fitness is -0.229 ± 0.065. On to S40N, for which the abundance fitness is -0.183 ± 0.2. The same measure, in the same setting: to S40D belongs 0.037 ± 0.22; to L17Q, -0.983 ± 0.34.

As to G35K, the abundance fitness is -0.291 ± 0.051. Take G35S: the abundance fitness is -0.193 ± 0.057. For the variant G35H, the abundance fitness was -0.038 ± 0.071. For L39V, the abundance fitness amounted to 0.034 ± 0.15. Consider L39D, for which the abundance fitness was -0.304 ± 0.16. The same measure, in the same setting: to W67Y belongs -0.09 ± 0.087; to W67L, -0.549 ± 0.052. Same read-out and setting: for A7W the value was -0.817 ± 0.049; for A7G, -0.646 ± 0.031; for A7T, -0.235 ± 0.063. Consider A7I, for which the abundance fitness is -0.083 ± 0.2. As for A7V, the abundance fitness is 0.039 ± 0.029. With K11S, the abundance fitness is -0.208 ± 0.054.

Regarding K11H, the abundance fitness is -0.1 ± 0.17.

Take K11Q: the abundance fitness was -0.136 ± 0.091. For the variant V63H, the abundance fitness stood at 0.019 ± 0.14.

As to E70C, the abundance fitness was -0.271 ± 0.045.

Turning to E70S, the abundance fitness was -0.034 ± 0.032. With E70G, the abundance fitness was -0.095 ± 0.039. For S53Q, the abundance fitness was -0.403 ± 0.14. For the variant G25V, the abundance fitness came out at 0.05 ± 0.069. The same measure, in the same setting: to G25K belongs -0.311 ± 0.37; to G25R, -0.203 ± 0.12; to G25F, -0.13 ± 0.098. Take R14S: the abundance fitness is -1.06 ± 0.12. Consider R14M, for which the abundance fitness is -0.945 ± 0.084. For I58T, the abundance fitness was -0.044 ± 0.072. As for I15L, the abundance fitness is -0.088 ± 0.044. For the variant I15Y, the abundance fitness is -0.32 ± 0.086. The same measure, in the same setting: for I15T the value was 0.02 ± 0.1; for I15F, -0.32 ± 0.078; for V24R, -0.83 ± 0.038. Take C45L: the abundance fitness was -0.06 ± 0.038.

As to C45I, the abundance fitness turned out to be 0.104 ± 0.069.

As to T43P, the abundance fitness was -0.836 ± 0.064. Take T43Q: the abundance fitness is -0.105 ± 0.14.

As to T43H, the abundance fitness was -0.296 ± 0.17. Turning to T43K, the abundance fitness is -0.153 ± 0.096. In the case of T43E, the abundance fitness is -0.235 ± 0.26.

As to Q21S, the abundance fitness was -0.289 ± 0.074.

As for Q21T, the abundance fitness was -0.193 ± 0.21.

Take Q21L: the abundance fitness was -0.192 ± 0.1. Same read-out and setting: for K32Q the value was -0.175 ± 0.065; for K16D, -0.132 ± 0.32; for N30C, -0.261 ± 0.15. Take N30L: the abundance fitness is -0.279 ± 0.049. Still for that read-out and setting: for N30E the value was -0.083 ± 0.091; for L68A, -0.287 ± 0.032; for L68M, -0.056 ± 0.031. Take I33P: the abundance fitness was -0.139 ± 0.13.

A71N: the abundance fitness is -0.032 ± 0.036. Regarding Q12R, the abundance fitness is -0.187 ± 0.068. Turning to Q12A, the abundance fitness is 0.006 ± 0.095. In the case of Q12N, the abundance fitness was found to be 0.189 ± 0.12.

On to D23G, for which the abundance fitness is -0.246 ± 0.49. As for D23F, the abundance fitness was -0.208 ± 0.21.

Turning to E69W, the abundance fitness was -0.232 ± 0.048. L64C: the abundance fitness is -0.717 ± 0.084.

Consider L64N, for which the abundance fitness is -0.758 ± 0.11.

As for L64G, the abundance fitness was -0.836 ± 0.037. On the same count and under the same terms, to L64K belongs -0.678 ± 0.066. Turning to L64D, the abundance fitness is -0.737 ± 0.084.

Turning to L64V, the abundance fitness is -0.425 ± 0.024.

Consider E2N, for which the abundance fitness is -0.207 ± 0.14.

For the variant E2L, the abundance fitness was -0.421 ± 0.04. As to E8T, the abundance fitness came out at 0.053 ± 0.065. For the variant E8S, the abundance fitness was -0.033 ± 0.055. Consider E8W, for which the abundance fitness was -0.2 ± 0.051.

As for F6M, the abundance fitness was -0.327 ± 0.25. Take F6Y: the abundance fitness is -0.118 ± 0.26.

A66Q: the abundance fitness is 0.042 ± 0.2. With A26S, the abundance fitness is -0.012 ± 0.025. Turning to A26H, the abundance fitness was -0.052 ± 0.058. Take A26V: the abundance fitness was -0.069 ± 0.026. Still for that read-out and setting: for A26F the value was -0.113 ± 0.046; for A26W, -0.152 ± 0.036; for R13N, -0.119 ± 0.13. In the case of L50E, the abundance fitness was -0.154 ± 0.063. Turning to L50A, the abundance fitness is 0.068 ± 0.039. With L50W, the abundance fitness was -0.717 ± 0.21. In the case of L50K, the abundance fitness is -0.012 ± 0.073. On to L50T, for which the abundance fitness was -0.101 ± 0.027. For the variant S38W, the abundance fitness is -0.389 ± 0.22.

On to S38M, for which the abundance fitness is -0.006 ± 0.03. As to S38L, the abundance fitness is -0.031 ± 0.036. In the case of S38T, the abundance fitness is 0.017 ± 0.03. Still for that read-out and setting: for L3E the value was -0.395 ± 0.33; for L3V, 0.074 ± 0.13. A22Y: the abundance fitness is -0.115 ± 0.052. Same read-out and setting: for A22Q the value was -0.214 ± 0.12; for A22D, -0.176 ± 0.14. As for A22L, the abundance fitness was -0.265 ± 0.033. As to T20Q, the abundance fitness was -0.27 ± 0.028.

On to T20R, for which the abundance fitness was -0.258 ± 0.022. Turning to T20P, the abundance fitness is -0.273 ± 0.026. Consider T51Q, for which the abundance fitness is -0.074 ± 0.11. On to T51E, for which the abundance fitness was -0.146 ± 0.29.

Turning to T51C, the abundance fitness was -0.121 ± 0.12.

As to K61M, the abundance fitness was determined as 0.02 ± 0.1. Same read-out and setting: to K61Q belongs -0.222 ± 0.11; to R46F, -0.519 ± 0.13. On the same count and under the same terms, to R46N belongs 0.094 ± 0.081; to R46I, -0.806 ± 0.16; to R46L, -0.184 ± 0.056.

As to R46M, the abundance fitness was -0.184 ± 0.1.

As to R46D, the abundance fitness is 0.096 ± 0.13. As for V36H, the abundance fitness is -0.072 ± 0.093.

With V36E, the abundance fitness was -0.055 ± 0.2. Regarding V36L, the abundance fitness was -0.011 ± 0.043. Same read-out and setting: for G18S the value was -0.435 ± 0.08. For G18N, the abundance fitness is -0.205 ± 0.33. In the case of A27R, the abundance fitness is -0.384 ± 0.14. Take E4R: the abundance fitness was 0.041 ± 0.11. As to E4N, the abundance fitness was -0.11 ± 0.096. With E4M, the abundance fitness came out at 0.01 ± 0.11. On to L31Y, for which the abundance fitness was -0.228 ± 0.29. The same measure, in the same setting: for L31C the value was 0.352 ± 0.23. Regarding L31S, the abundance fitness was -0.094 ± 0.16. As to A29N, the abundance fitness was -0.053 ± 0.095. Take R9E: the abundance fitness is 0.033 ± 0.075.

Consider S49E, for which the abundance fitness turned out to be 0.102 ± 0.071. S49N: the abundance fitness is -0.005 ± 0.13. For the variant S49Y, the abundance fitness was -0.209 ± 0.15. With S49F, the abundance fitness was -0.515 ± 0.11. In the case of S49A, the abundance fitness is 0.016 ± 0.065. As to S49H, the abundance fitness is -0.033 ± 0.096.

As to V19T, the abundance fitness is -0.192 ± 0.039.

The record behind these values is the Human Domainome abundance scans (Beltran et al. 2025).
